No end group written: not given here.
What was measured:
[1] = target: T1, BSA conjugated CD28 stalk region dimeric peptide (human, not fully specified (C-terminus); also: hydrazide-terminated peptide conjugated to S-4FB modified BSA, dimeric peptide); assay: ELISA, antigen on plate, serial dilution of antibody
T1 construct: Dimeric peptide; dimerization confirmed on a non-denaturing gel; also called stalk region peptide; dimeric human CD28 stalk region peptide
T1 peptide: GKHLCPSPLFPGPSKPK

[2] = target: Irrelevant control (Table 1); assay: ELISA, same clone on the irrelevant control; unit not given
[3] = target: T2, recombinant human CD28 (R&D systems, Cat. No. 342-CD; human CD28-Ig chimera) (human, UniProt P10747 19-152); assay: direct ELISA, recombinant human sCD28 on maxisorp plates; reference CD28.2
T2 construct: extracellular domain; also called rhCD28; recombinant human sCD28; not shown: Ig (Fc) portion of the bought chimera; not specified

[4] = target: T2, recombinant human CD28 (R&D systems, …); assay: direct ELISA, recombinant human sCD28 on maxisorp plates

B1: clone M9 (antibody, V domains shown)
VH: DVKLVESGGGLVKLGGSLKLSCVASGFTFSSYYMSWVRQTPEKRLEWVATISDGGDNTYYAGTVTGRFTISRDFAKNTLYLQMNSLTSEDTAVYYCARIHWPYYFDSWGQGTTLTVSS
VL: QFVLSQSPAILSASPGEMLTMTCRASSSVSYMNWYQQKPGSSPKPWIYATSDLASGVPARFSGSGSGTSYSLTISRVEAEDAATYYCQQWSSHPPTFGGGTKLEIR
notes: also called 4G07; antibody M9
binding result [1]: binds
ELISA signal on irrelevant control [2]: 0.06

B2: Antibody #1 (antibody, mouse IgG1, kappa, V domains shown)
VH: QIQLVQSGPELKKPGETVKISCKASGYTLTNYGMNWVKQAPGKGLKWMGWINTYTGKPTYVDDFKGRFAFSLETSASTAYLQINNLKNEDTATYFCARGDANQQFAYWGQGTLVTVSA
VL: DIKMTQSPSSMYASLGERVTITCKASQDINSYLSWFQQKPGKSPKTLIYRANRLVDGVPSRFSGSGSGQDYSLTISSLEYDDMGIYYCLQYDEFPPTFGAGTKLELKR
fold detection against CD28.2 [3]: ~10 fold

B3: Antibody #2 (antibody, mouse IgG2b, kappa, V domains shown)
VH: QVQLQQSGAELARPGASVKLSCKASGYTFTSYWMQWIKKRPGQGLEWIGAIYPGDGDTRYTQKFKGKATLTADKSSTTAYMQLSSLASEDSAVYFCARNYRYSSFGYWGQGTLVTVSA
VL: DIVMTQSPSSLTVTAGEKVTLSCKSSQSLLNSGNQKNYLTWYQQKPGQPPQLLIYWASTRESGVPDRFTGSGSGTDFTLTISSVQAEDLAVYYCQSDYSYPLTFGAGTKLELKR
binding result [4]: binds

— US20210047411A1 (BIOND BIOLOGICS, published 2021)
